Biological target: MVP3-5 (residues 102-274 of human MVP), wild type (human, UniProt Q14764 102-274)
Experiment: SEC

Sequence of MVP3-5 (residues 102-274 of human MVP), wild type (Q14764 102-274): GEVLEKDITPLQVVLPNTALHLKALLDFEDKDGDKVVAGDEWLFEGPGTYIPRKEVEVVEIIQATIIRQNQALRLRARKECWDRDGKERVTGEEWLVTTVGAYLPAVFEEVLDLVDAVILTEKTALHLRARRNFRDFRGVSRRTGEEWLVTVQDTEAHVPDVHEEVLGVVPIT

B1: MINT domain (residues 1562-1724 of human PARP4), wild type (domain or fragment)
chain: VCIQHWQDAVPWTELLSLQTEDGFWKLTPELGLILNLNTNGLHSFLKQKGIQSLGVKGRECLLDLIATMLVLQFIRTRLEKEGIVFKSLMKMDDASISRNIPWAFEAIKQASEWVRRTEGQYPSICPRLELGNDWDSATKQLLGLQPISTVSPLHRVLHYSQG
- binding result: binds

Source: article doi:10.1101/2024.06.27.601040 (bioRxiv, 2024)
